The target in this assay is T1, PTH1R on cell surface (Homo sapiens, UniProt Q03431).
T1 construct: HA; expressed in transfected cells; LRP6N-IgG conditioned medium came from transfected HEK 293 cells
T1 sequence (Q03431 27-593): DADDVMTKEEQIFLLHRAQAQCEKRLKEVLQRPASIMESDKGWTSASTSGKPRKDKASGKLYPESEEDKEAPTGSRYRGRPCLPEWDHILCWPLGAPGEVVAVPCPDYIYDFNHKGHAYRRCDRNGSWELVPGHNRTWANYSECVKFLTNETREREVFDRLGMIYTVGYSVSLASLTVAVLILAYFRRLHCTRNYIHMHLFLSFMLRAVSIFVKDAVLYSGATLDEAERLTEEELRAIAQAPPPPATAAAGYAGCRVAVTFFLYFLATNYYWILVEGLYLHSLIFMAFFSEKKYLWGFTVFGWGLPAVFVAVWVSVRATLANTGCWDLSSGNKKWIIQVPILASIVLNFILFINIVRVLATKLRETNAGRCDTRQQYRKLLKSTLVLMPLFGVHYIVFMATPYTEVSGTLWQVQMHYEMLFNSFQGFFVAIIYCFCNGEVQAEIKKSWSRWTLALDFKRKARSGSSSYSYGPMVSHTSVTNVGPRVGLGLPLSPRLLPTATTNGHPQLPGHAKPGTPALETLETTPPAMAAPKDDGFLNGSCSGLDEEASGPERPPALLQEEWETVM
The experiment in a line: Cell surface binding by immunofluorescence colocalization assay. In kind it is cell-based. As to the method:
Cells were transfected with HA-PTH1R and treated with IgG conditioned medium or LRP6N-IgG conditioned medium for 1 hour followed by PTH (1-84) treatment for 15 minutes. Cells were then washed with phosphate buffered saline (PBS), fixed with 4% paraformaldehyde, permeabilized with 0.1% Triton X-100, and incubated with primary antibody followed by incubation with chromophore-conjugated secondary antibody. Digital pictures were taken using an Olympus, IX TRINOC camera fitted to an Olympus, IX70 Inverted Research Microscope (Olympus; Center Valley, Pa.) with objective lenses of Hoffman Modulation Contrast®, HMC 10 LWD PL FL, 0.3NA ∝/1, at room temperature, and processed using MagnaFire® SP imaging software. A […] TCs SP2 system was used for confocal imaging. The ratios of the number of cells showing in green to the number of cells showing in red were calculated. For each treatment, 100 cells on each of three different slides were analyzed.

B1: LRP6N-IgG: LRP6 extracellular domain fused with IgG (protein)
chain: APLLLYANRRDLRLVDATNGKENATIVVGGLEDAAAVDFVFSHGLIYWSDVSEEAIKRTEFNKTESVQNVVVSGLLSPDGLACDWLGEKLYWTDSETNRIEVSNLDGSLRKVLFWQELDQPRAIALDPSSGFMYWTDWGEVPKIERAGMDGSSRFIIINSEIYWPNGLTLDYEEQKLYWADAKLNFIHKSNLDGTNRQAVVKGSLPHPFALTLFEDILYWTDWSTHSILACNKYTGEGLREIHSDIFSPMDIHAFSQQRQPNATNPCGIDNGGCSHLCLMSPVKPFYQCACPTGVKLLENGKTCKDGATELLLLARRTDLRRISLDTPDFTDIVLQLEDIRHAIAIDYDPVEGYIYWTDDEVRAIRRSFIDGSGSQFVVTAQIAHPDGIAVDWVARNLYWTDTGTDRIEVTRLNGTMRKILISEDLEEPRAIVLDPMVGYMYWTDWGEIPKIERAALDGSDRVVLVNTSLGWPNGLALDYDEGKIYWGDAKTDKIEVMNTDGTGRRVLVEDKIPHIFGFTLLGDYVYWTDWQRRSIERVHKRSAEREVIIDQLPDLMGLKATNVHRVIGSNPCAEENGGCSHLCLYRPQGLRCACPIGFELISDMKTCIVPEAFLLFSRRADIRRISLETNNNNVAIPLTGVKEASALDFDVTDNRIYWTDISLKTISRAFMNGSALEHVVEFGLDYPEGMAVDWLGKNLYWADTGTNRIEVSKLDGQHRQVLVWKDLDSPRALALDPAEGFMYWTEWGGKPKIDRAAMDGSERTTLVPNVGRANGLTIDYAKRRLYWTDLDTNLIESSNMLGLNREVIADDLPHPFGLTQYQDYIYWTDWSRRSIERANKTSGQNRTIIQGHLDYVMDILVFHSSRQSGWNECASSNGHCSHLCLAVPVGGFVCGCPAHYSLNADNRTCSAPTTFLLFSQKSAINRMVIDEQQSPDIILPIHSLRNVRAIDYDPLDKQLYWIDSRQNMIRKAQEDGSQGFTVVVSSVPSQNLEIQPYDLSIDIYSRYIYWTCEATNVINVTRLDGRSVGVVLKGEQDRPRAVVVNPEKGYMYFTNLQERSPKIERAALDGTEREVLFFSGLSKPIALALDSRLGKLFWADSDLRRIESSDLSGANRIVLEDSNILQPVGLTVFENWLYWIDKQQQMIEKIDMTGREGRTKVQARIAQLSDIHAVKELNLQEYRQHPCAQDNGGCSHICLVKGDGTTRCSCPMHLVLLQDELSCGEPPTCSPQQFTCFTGEIDCIPVAWRCDGFTECEDHSDELNCPVCSESQFQCASGQCIDGALRCNGDANCQDKSDEKNCEVLCLIDQFRCANGQCIGKHKKCDHNVDCSDKSDELDCYPTEEPAPQA
modifications: left off: a dimerising Fc or GST
As for B1, the “immuno-colocalization with PTH1R on cell surface” value by setting is: (with addition of PTH ligand (PTH (1-84), 15 minutes)) 82.3%; (without PTH ligand, cells transfected with HA-PTH1R) 22.8%.

Values taken from patent publication US20110256557A1, “IDENTIFYING PARATHYROID HORMONE AGONISTS AND ANTAGONISTS” (DISCOVERYBIOMED, INC., priority 2008, published 2011).
